Laboratory results from paper PMC7397868, “System-wide analyses of the fission yeast poly(A)+ RNA interactome reveal insights into organization and function of RNA–protein complexes”.

Molecular target: T1, Cdk9;Pch1 (Schizosaccharomyces …, UniProt Q96WV9;O74627 1-591;1-342, |)
T1 sequence 1: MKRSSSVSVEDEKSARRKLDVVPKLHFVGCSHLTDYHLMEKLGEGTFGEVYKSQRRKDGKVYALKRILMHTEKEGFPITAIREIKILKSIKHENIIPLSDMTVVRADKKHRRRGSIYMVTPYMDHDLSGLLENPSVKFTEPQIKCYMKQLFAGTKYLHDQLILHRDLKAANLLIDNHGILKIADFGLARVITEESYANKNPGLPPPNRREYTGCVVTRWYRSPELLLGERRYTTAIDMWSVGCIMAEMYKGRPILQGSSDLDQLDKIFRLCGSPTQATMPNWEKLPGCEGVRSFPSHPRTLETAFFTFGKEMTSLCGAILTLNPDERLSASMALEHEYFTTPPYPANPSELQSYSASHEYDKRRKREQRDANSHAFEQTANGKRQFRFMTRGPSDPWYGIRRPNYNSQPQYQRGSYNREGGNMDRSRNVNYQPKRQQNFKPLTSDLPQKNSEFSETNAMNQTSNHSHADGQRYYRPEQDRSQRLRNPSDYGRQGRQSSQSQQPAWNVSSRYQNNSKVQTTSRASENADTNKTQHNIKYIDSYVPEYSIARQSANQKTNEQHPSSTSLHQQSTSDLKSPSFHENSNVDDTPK
T1 sequence 2: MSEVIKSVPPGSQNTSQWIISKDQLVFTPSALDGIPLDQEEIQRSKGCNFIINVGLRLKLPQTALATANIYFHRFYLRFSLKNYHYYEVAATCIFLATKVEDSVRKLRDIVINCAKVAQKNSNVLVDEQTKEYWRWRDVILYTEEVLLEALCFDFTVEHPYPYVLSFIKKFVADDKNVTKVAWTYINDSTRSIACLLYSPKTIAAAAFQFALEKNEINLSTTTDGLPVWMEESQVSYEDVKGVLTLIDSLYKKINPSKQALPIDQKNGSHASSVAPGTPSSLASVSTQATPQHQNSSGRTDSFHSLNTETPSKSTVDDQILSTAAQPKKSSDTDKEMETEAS
Assay: fluorescence anisotropy; 8 nM RNA; four-parameter logistic fit with Hill slope; 20 mM HEPES 7.5, 150 mM NaCl, 0.5 mM MgCl2, 0.5 mM Mg(OAc)2, 1 mM 2-mercaptoethanol; 20 min at RT, read at 25 C
Details: protein: recombinant;recombinant; tags: none stated;N-terminal His-TEV, His-tag cleaved with TEV; copies: 1;1; single strand; heated 5 min at 95 C before use

Binder: AUUAGUAAAAUAUAUGCAUAAAGACCAGGC (ssRNA) [generic FAM-labeled RNA oligo]
- Kd: 47 ± 1.7 nM
